From patent publication US20240034802A1

Columns and labels:
Experiment in all cases: flow cytometry, protein L-biotin then streptavidin-PE on CAR T cells
[1] = target: tandem CD20/CD19 chimeric antigen receptor, Construct CAR 2019 (Leader-CD20 VH (GGGGS)3-CD20 VL-(GGGGS)5-CD19 VL-Whitlow linker-CD19 VH CD8 hinge+TM-4-1BB-CD3z)
[2] = target: tandem CD19/CD20 chimeric antigen receptor, Construct CAR 1920 (Leader-CD19 VL-Whitlow linker CD19 VH (GGGGS)-5 CD20 VH (GGGGS)-3 CD20 VL CD8 hinge+TM-4-1BB-CD3z)
[3] = target: CARs on the transduced T cell surface

Sequence of tandem CD19/CD20 chimeric antigen receptor, Construct CAR 1920 (Leader-CD19 VL-Whitlow linker CD19 VH (GGGGS)-5 CD20 VH (GGGGS)-3 CD20 VL CD8 hinge+TM-4-1BB-CD3z) (chain, as listed by the source mutant): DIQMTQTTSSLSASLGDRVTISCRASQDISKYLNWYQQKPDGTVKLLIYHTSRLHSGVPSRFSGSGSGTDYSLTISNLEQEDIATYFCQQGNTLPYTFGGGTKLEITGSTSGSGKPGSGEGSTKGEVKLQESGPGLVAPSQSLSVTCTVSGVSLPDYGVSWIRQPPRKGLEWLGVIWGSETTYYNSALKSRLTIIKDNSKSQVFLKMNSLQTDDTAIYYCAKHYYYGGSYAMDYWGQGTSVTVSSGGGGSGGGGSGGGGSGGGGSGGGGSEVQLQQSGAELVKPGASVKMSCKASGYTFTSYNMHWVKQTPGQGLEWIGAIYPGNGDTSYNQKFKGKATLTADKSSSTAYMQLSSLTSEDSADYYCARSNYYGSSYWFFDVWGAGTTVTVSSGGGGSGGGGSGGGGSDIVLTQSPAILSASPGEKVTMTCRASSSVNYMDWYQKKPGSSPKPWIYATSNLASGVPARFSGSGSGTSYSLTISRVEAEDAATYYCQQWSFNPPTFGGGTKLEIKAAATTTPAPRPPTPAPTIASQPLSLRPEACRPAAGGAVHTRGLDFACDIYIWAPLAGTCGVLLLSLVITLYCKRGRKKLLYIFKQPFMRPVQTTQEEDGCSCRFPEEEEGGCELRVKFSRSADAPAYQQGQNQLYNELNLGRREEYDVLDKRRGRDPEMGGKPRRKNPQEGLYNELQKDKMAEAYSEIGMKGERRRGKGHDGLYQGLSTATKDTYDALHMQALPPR
Sequence of tandem CD20/CD19 chimeric antigen receptor, Construct CAR 2019 (Leader-CD20 VH (GGGGS)3-CD20 VL-(GGGGS)5-CD19 VL-Whitlow linker-CD19 VH CD8 hinge+TM-4-1BB-CD3z) (chain, as listed by the source mutant): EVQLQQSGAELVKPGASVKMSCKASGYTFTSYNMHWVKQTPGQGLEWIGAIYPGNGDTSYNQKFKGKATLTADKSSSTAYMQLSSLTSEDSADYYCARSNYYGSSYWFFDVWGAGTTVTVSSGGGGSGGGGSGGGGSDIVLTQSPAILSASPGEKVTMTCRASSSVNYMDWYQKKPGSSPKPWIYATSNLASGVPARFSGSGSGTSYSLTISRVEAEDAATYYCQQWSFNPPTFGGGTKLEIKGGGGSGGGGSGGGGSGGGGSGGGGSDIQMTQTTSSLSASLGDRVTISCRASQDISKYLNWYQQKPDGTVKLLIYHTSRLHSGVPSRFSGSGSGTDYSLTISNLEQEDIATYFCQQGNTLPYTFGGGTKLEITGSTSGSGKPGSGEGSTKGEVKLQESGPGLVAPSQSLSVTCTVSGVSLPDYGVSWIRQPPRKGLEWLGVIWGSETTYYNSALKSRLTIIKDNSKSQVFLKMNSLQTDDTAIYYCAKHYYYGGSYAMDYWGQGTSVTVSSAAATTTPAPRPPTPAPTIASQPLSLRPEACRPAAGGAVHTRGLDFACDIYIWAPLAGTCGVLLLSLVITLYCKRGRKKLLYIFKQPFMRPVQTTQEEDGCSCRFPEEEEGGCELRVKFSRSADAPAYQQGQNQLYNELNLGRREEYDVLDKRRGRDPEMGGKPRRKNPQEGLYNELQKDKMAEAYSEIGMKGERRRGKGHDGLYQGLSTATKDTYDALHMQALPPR

percent of transduced T cells stained [1]: 89%
percent of transduced T cells stained [2]: 85%
percent of transduced T cells stained (CAR surface expression) [3]: 61 to 93%
Substance: protein L-biotin conjugate (GenScript)
